This note sets out measurements from doi:10.1101/2021.09.17.460839.

Changes are numbered by the printed parent chain.

Data set [1] concerns the target T1, Rv0792c G80D G80D (Mycobacterium tuberculosis) (UniProt O86331).
T1 sequence: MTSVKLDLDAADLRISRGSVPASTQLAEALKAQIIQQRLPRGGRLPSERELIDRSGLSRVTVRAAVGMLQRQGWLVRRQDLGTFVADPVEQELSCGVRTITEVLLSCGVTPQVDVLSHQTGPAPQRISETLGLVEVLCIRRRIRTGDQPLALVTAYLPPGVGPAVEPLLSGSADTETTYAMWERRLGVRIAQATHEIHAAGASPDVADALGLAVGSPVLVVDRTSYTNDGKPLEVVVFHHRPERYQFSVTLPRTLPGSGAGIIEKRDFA
The experiment in a line: ALISA.

Data set [2] concerns the target T2, Rv0792c R49A R49A (Mycobacterium tuberculosis) (UniProt O86331).
T2 sequence: T1 sequence with R49A, D80G
The experiment in a line: ALISA.

Regarding “TCTAGTCATTCGTCATAATCCCATCTGTTTCTTCCTCCTTCCGT [Rv0792c_2 aptamer (printed Rv0729c_2)]”, the Kd (in general, the equilibrium constant for the complex coming apart) is 120 nM in data set [1] and 74 nM in data set [2].
